# Measured values taken from PMC4737164, “DNA recognition for virus assembly through multiple sequence-independent interactions with a helix-turn-helix motif”.
# Numbering of substitutions follows the chain as printed.
# T1: SF6 small terminase (GP1) DBD wild type (Bacillus phage SF6, UniProt P68928 1-68)
# T1 sequence: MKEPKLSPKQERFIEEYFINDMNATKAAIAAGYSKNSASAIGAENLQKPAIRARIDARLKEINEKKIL
# T2: SF6 small terminase DBD K48A (Bacillus phage SF6, UniProt P68928 1-68, K48A)
# T2 sequence: T1 sequence with K48A
# T3: SF6 small terminase DBD K26A (Bacillus phage SF6, UniProt P68928 1-68, K26A)
# T3 sequence: T1 sequence with K26A
# B1: 30-bp linker dsDNA (dsDNA)
# DNA 1: GAGACCTGGAACGCGATCATTGGCAGCACG
# DNA 2: CGTGCTGCCAATGATCGCGTTCCAGGTCTC
# B2: 30-bp AUC DNA (dsDNA)
# DNA 1: ATAGAAAAAACCTCCTTAAAACTATATTTG
# DNA 2: CAAATATAGTTTTAAGGAGGTTTTTTCTAT
# B3: F10 (S10) (dsDNA)
# DNA 1: TTGGGGCAGAAAACTTACAGAAACCAGCTA
# DNA 2: TAGCTGGTTTCTGTAAGTTTTCTGCCCCAACCTACCCTACGTCCTCCTGC
# DNA 3: GCAGGAGGACGTAGGGTAGG
# B4: P8_F5 (dsDNA)
# DNA 1: TTTCTATGGGAGAAGTAAACCTAAACTATCTCCAAA
# DNA 2: TTTGGAGATAGTTTAGGTTTACTTCTCCCATAGAAACCTACCCTACGTCCTCCTGC
# DNA 3: GCAGGAGGACGTAGGGTAGG
# B5: F5 (S5) (dsDNA)
# DNA 1: TTTTATGAAAGAACCTAAACTATCTCCAAA
# DNA 2: TTTGGAGATAGTTTAGGTTCTTTCATAAAACCTACCCTACGTCCTCCTGC
# DNA 3: GCAGGAGGACGTAGGGTAGG
# B6: P6 (boxA) (dsDNA)
# DNA 1: ATTAGGTTTATATAAGGTTTTATCATTCAG
# DNA 2: CTGAATGATAAAACCTTATATAAACCTAATCCTACCCTACGTCCTCCTGC
# DNA 3: GCAGGAGGACGTAGGGTAGG
# B7: P6_F3 (dsDNA)
# DNA 1: B6 DNA 1 with C24A, A25C, T26A
# DNA 2: B6 DNA 2 with A5T, T6G, G7T
# DNA 3: GCAGGAGGACGTAGGGTAGG
# B8: F3 (S3) (dsDNA)
# DNA 1: ATTAGGTTTATATAAGGTTTTAATTAGGTT
# DNA 2: AACCTAATTAAAACCTTATATAAACCTAATCCTACCCTACGTCCTCCTGC
# DNA 3: GCAGGAGGACGTAGGGTAGG
# B9: 11-bp DNA (dsDNA)
# DNA 1: GCCTACCCTAC
# DNA 2: GTAGGGTAGGC
# B10: 20-bp linker dsDNA (dsDNA)
# DNA 1: GCAGGAGGACGTAGGGTAGG
# DNA 2: CCTACCCTACGTCCTCCTGC
# B11: 18C-hairpin (structured_DNA)
# DNA 1: AGTAGG
# DNA 2: CCTAC
# modifications: 18C spacer joins 3' end of strand 1 to 5' end of strand 2
# How the values were obtained:
# [1] = target: T1, SF6 small terminase (GP1) DBD wild type; test: SPR; McGhee-von Hippel, site size 3 bp; not saturated; 20 mM HEPES, 150 mM KCl (300 mM in second ReDCaT), pH 7.0, +0.05% Tween 20 for SPR; ReDCaT 20 uM protein; AUC 20 C; NMR 20 mM MES, 150 mM KCl, pH 6.0, 25 C; details: protein: recombinant, tags: C-terminal 3C site-His tag, cleaved, label: 5'-biotin strand 1 (SPR), blunt
# [2] = target: T1, SF6 small terminase (GP1) DBD wild type; test: AUC; 1 mM protein; 5 proteins per DNA, not saturated; 20 mM HEPES, 150 mM KCl (300 mM in second ReDCaT), pH 7.0, +0.05% Tween 20 for SPR; ReDCaT 20 uM protein; AUC 20 C; NMR 20 mM MES, 150 mM KCl, pH 6.0, 25 C; details: protein: recombinant; tags: C-terminal 3C site-His tag, cleaved; label: 5'-TAMRA strand 1; blunt
# [3] = target: T1, SF6 small terminase (GP1) DBD wild type; test: SPR; 300 mM KCl; above-average density; 20 mM HEPES, 150 mM KCl (300 mM in second ReDCaT), pH 7.0, +0.05% Tween 20 for SPR; ReDCaT 20 uM protein; AUC 20 C; NMR 20 mM MES, 150 mM KCl, pH 6.0, 25 C; details: protein: recombinant; tags: C-terminal 3C site-His tag, cleaved; label: 5'-biotin strand 3; nicked 50 bp
# [4] = target: T1, SF6 small terminase (GP1) DBD wild type; test: SPR; 300 mM KCl; increased, approaching F5; 20 mM HEPES, 150 mM KCl (300 mM in second ReDCaT), pH 7.0, +0.05% Tween 20 for SPR; ReDCaT 20 uM protein; AUC 20 C; NMR 20 mM MES, 150 mM KCl, pH 6.0, 25 C; details: protein: recombinant; tags: C-terminal 3C site-His tag, cleaved; label: 5'-biotin strand 3; nicked
# [5] = target: T1, SF6 small terminase (GP1) DBD wild type; test: AUC; 1.5 mM protein; 1:1; Kd stated in mM range; 20 mM HEPES, 150 mM KCl (300 mM in second ReDCaT), pH 7.0, +0.05% Tween 20 for SPR; ReDCaT 20 uM protein; AUC 20 C; NMR 20 mM MES, 150 mM KCl, pH 6.0, 25 C; details: protein: recombinant; tags: C-terminal 3C site-His tag, cleaved; label: 3'-ATTO 647N in AUC; hairpin, 5 bp, TTTT loop
# [6] = target: T1, SF6 small terminase (GP1) DBD wild type; test: SPR; 150 mM KCl; superstoichiometric, low affinity; 20 mM HEPES, 150 mM KCl (300 mM in second ReDCaT), pH 7.0, +0.05% Tween 20 for SPR; ReDCaT 20 uM protein; AUC 20 C; NMR 20 mM MES, 150 mM KCl, pH 6.0, 25 C; details: protein: recombinant; tags: C-terminal 3C site-His tag, cleaved; label: 5'-biotin strand 3; nicked 50 bp
# [7] = target: T1, SF6 small terminase (GP1) DBD wild type; test: SPR; 300 mM KCl; not significantly changed vs P6/F3; 20 mM HEPES, 150 mM KCl (300 mM in second ReDCaT), pH 7.0, +0.05% Tween 20 for SPR; ReDCaT 20 uM protein; AUC 20 C; NMR 20 mM MES, 150 mM KCl, pH 6.0, 25 C; details: protein: recombinant; tags: C-terminal 3C site-His tag, cleaved; label: 5'-biotin strand 3; nicked 50 bp
# [8] = target: T1, SF6 small terminase (GP1) DBD wild type; test: AUC; 2-3 proteins per DNA, saturated; 20 mM HEPES, 150 mM KCl (300 mM in second ReDCaT), pH 7.0, +0.05% Tween 20 for SPR; ReDCaT 20 uM protein; AUC 20 C; NMR 20 mM MES, 150 mM KCl, pH 6.0, 25 C; details: protein: recombinant; tags: C-terminal 3C site-His tag, cleaved; label: 3'-ATTO 647N strand 1; blunt
# [9] = target: T2, SF6 small terminase DBD K48A; test: SPR; up to 1500 uM protein; 20 mM HEPES, 150 mM KCl (300 mM in second ReDCaT), pH 7.0, +0.05% Tween 20 for SPR; ReDCaT 20 uM protein; AUC 20 C; NMR 20 mM MES, 150 mM KCl, pH 6.0, 25 C; details: protein: recombinant; tags: C-terminal 3C site-His tag, cleaved; label: 5'-biotin strand 1 (SPR); none in NMR; blunt
# [10] = target: T3, SF6 small terminase DBD K26A; test: SPR; McGhee-von Hippel, site size 3 bp; 20 mM HEPES, 150 mM KCl (300 mM in second ReDCaT), pH 7.0, +0.05% Tween 20 for SPR; ReDCaT 20 uM protein; AUC 20 C; NMR 20 mM MES, 150 mM KCl, pH 6.0, 25 C; details: protein: recombinant; tags: C-terminal 3C site-His tag, cleaved; label: 5'-biotin strand 1 (SPR); none in NMR; blunt
# [11] = target: T1, SF6 small terminase (GP1) DBD wild type; test: AUC; 1:1; Kd stated in mM range; 20 mM HEPES, 150 mM KCl (300 mM in second ReDCaT), pH 7.0, +0.05% Tween 20 for SPR; ReDCaT 20 uM protein; AUC 20 C; NMR 20 mM MES, 150 mM KCl, pH 6.0, 25 C; details: protein: recombinant; tags: C-terminal 3C site-His tag, cleaved; label: 5'-6-FAM in AUC; hairpin, 5 bp, 1 nt 5' overhang
binder,measurement,setting,value
B1,Kd,[1],1850 ± 20 µM
B2,binding result,[2],binds
B3,binding result,[3],binds
B4,binding result,[4],binds
B5,binding result,[3],binds
GTAGGTTTTCCTAC (structured_DNA) [14-nt hairpin],binding result,[5],binds
B6,binding result,[6],binds
B7,binding result,[7],binds
B8,binding result,[3],binds
B9,binding result,[8],binds
B10,Kd,[1]; none in NMR,920 ± 10 µM
same,binding result,[9],no binding
same,Kd,[10],3080 ± 30 µM
B11,binding result,[11],binds
